Where no end group is shown, it is not given here.
T1: human Bcl-w (residues 9-152) (human, UniProt Q92843 9-152)
T1 sequence (looked up): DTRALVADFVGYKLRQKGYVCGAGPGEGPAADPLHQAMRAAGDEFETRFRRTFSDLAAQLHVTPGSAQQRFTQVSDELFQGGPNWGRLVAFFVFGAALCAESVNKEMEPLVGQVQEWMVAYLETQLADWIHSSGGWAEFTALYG

T2: human A1/Bfl-1 (residues 1-151) (human, UniProt Q16548 1-151)
T2 sequence (looked up): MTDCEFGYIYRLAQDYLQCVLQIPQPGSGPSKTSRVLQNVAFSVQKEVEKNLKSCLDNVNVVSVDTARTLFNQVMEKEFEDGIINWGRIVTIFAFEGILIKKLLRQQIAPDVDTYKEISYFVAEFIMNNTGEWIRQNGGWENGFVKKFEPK


How the values were obtained:
HyBcl-2-4 = test: ITC binding of BH3 motif peptides to HyBcl-2-4; set-up: species or system Hydra vulgaris; details: read-out: KD (dissociation constant), HyBcl-2-4, MicroCal iTC200, 25°C, tag-free HyBcl-2-4 lacking 30 C-terminal residues, 25 mM Hepes pH 7.5, 150 mM NaCl, means of 3 experiments ± SD, NB: no binding detected
[1] = biological target: HyBcl-2-4 lacking 30 C-terminal residues (fusion tag-free) (Hydra vulgaris); test: ITC
[2] = biological target: human Bcl-2 (residues 10-203) (human, UniProt P10415 10-203); test: ITC
[3] = biological target: human Bcl-xL (residues 1-209 Δloop45-84) (human, UniProt Q07817-1 1-209, Δloop45-84); test: ITC
[4] = biological target: T1, human Bcl-w (residues 9-152); test: ITC
[5] = biological target: human Mcl-1 (residues 171-320) (human, UniProt Q07820 171-320); test: ITC
[6] = biological target: T2, human A1/Bfl-1 (residues 1-151); test: ITC

Chain of human Bcl-2 (residues 10-203) (P10415 10-203): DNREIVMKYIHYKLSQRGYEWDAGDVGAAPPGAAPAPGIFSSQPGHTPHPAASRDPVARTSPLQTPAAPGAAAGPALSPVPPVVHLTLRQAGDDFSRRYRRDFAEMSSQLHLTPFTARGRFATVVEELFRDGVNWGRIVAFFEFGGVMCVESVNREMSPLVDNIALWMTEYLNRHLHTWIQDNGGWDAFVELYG
Chain of human Mcl-1 (residues 171-320) (Q07820 171-320): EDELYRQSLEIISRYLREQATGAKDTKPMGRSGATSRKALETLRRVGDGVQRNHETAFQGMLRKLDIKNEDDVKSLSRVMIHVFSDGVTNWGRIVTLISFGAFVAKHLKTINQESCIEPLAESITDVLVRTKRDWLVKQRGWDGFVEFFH

Molecule | Kd (HyBcl-2-4) [nM] | Kd [1] [nM] | binding result [2] | binding result [3] | binding result [4] | Kd [5] [nM] | binding result [6]
SMRRLRAIGACLRAIGDDIQSRSEKS [HyBH3-only] | 149 |  |  |  |  |  | 
SMRRLRAIGACLRAIGDDIQSRSEKS [HyBH3-only-2 BH3 motif peptide] |  | 149 | binds | binds | binds | 50 | binds
SRNGTVNKEVAHCLKRIGDDLVNNHQLN [HyBax BH3 motif peptide] |  | 2290 | binds | binds | binds | 41 | binds
SNGETENLGRVLASFGDEINDKYRQV [HyBak1 BH3 motif peptide] |  |  | binds | binds | binds | 67 | binds
